Measured values as given in article PMC10916398.

Key:
HUα = target: T1, HUα (UniProt P0ACF0); assay: EMSA
T1 sequence: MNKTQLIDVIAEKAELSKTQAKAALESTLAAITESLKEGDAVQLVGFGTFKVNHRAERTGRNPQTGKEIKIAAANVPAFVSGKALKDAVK

HUβ = target: T2, HUβ (UniProt P0ACF4); assay: EMSA
T2 sequence: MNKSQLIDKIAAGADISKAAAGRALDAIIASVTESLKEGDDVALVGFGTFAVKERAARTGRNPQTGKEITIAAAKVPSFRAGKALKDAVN

Sequence	binding (HUα)	binding (HUβ)	binding signal (HUα)	binding signal (HUβ)
GGCAGTCGTTGATAGTGGATGGCGGCTTTATGTTGGCGAATCCACAGTTCAACCCAGAATAGCGCAGTGAGGTGCGTGGATATTTCATTGGGGCTGAATTTACAATCCAAGTGCAACAAAAAAAGAAGTACTCATCAACTAGAATATAATTTTGTTTCCACACAAAAACCATTTCCAAATGATGAGTACTTCCTACCGACATCTTACAATAAACGAGCGAGAAAAGATAATGATTTTACTCGCACAGGGC (double strand) [IRL-FAM-Long (ISApl1 promoter)]	binds	binds	–	–
AAACTGAATTTACGACCACGTAAATGTTTAGGTTGGAAAACACCTTATGAAGTTTACTTCAAAAAA (double strand) [IRR-FAM-NO-IRR]	–	–	binds more weakly	binds more weakly
CCCATACTGAATATACACTTGAGAGTATTTATAATTTGTATCTTGAATTGTCAAACCAAGTGCAACGATTTTTTGAAGTAAACTTCATAAGGTGTTTTCCAACCTAAACATTTACGTGGTCGTAAATTCAGTTT (double strand) [IRR-FAM-Long]	binds	binds	–	–
CTTGAATTGTCAAACCAAGTGCAACGATTTTTTGAAGTAAACTTCATAAGGTGTTTTCCAACCTAAACATTTACGTGGTCGTAAATTCAGTTT (double strand) [IRR-FAM-WT]	binds	binds	–	–
